Patent publication US20230340071A1 (published 2023)

Key:
[1] = target: T1, human IL-2 receptor (IL-2Rβγc) on cells (human, UniProt P14784 27-551; P31785 23-369); assay: cell-based or functional assay
T1 sequence 1: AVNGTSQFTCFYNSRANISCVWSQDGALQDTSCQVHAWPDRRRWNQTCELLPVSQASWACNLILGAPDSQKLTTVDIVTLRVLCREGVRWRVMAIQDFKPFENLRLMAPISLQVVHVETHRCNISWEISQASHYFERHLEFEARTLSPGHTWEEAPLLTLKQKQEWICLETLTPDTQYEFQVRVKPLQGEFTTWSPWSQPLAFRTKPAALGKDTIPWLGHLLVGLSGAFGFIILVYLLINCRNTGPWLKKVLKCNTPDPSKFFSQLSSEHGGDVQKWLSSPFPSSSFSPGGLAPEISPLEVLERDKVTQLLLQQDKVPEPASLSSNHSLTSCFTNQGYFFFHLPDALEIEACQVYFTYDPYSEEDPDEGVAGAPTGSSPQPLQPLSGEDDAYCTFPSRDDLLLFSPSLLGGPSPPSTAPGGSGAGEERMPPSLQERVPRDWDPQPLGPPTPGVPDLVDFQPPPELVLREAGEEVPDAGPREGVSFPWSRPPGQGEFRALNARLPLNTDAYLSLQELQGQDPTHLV
T1 sequence 2: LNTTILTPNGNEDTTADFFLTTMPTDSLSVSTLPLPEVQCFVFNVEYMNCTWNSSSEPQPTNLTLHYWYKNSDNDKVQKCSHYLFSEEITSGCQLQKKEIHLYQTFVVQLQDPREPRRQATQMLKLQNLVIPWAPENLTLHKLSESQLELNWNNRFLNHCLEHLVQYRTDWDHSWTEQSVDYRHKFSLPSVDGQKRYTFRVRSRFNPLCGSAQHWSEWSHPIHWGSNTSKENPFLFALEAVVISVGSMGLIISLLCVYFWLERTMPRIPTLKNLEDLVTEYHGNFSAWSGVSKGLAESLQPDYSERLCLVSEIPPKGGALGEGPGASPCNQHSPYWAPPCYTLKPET

Biotinylated hIL2RB = target: T2, Biotinylated hIL2RB (UniProt P14784 27-240, biotinylated (site not stated)); assay: BLI
T2 chain: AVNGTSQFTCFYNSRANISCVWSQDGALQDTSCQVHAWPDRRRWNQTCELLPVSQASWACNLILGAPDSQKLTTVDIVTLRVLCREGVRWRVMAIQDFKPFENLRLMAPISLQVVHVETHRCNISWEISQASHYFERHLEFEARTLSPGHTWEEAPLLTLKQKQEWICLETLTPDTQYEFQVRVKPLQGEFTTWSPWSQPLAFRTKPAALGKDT

[2] = target: T3, hIL-2RBG (biotinylated hIL2RG on the sensor with hIL2RB in solution) (UniProt P14784 27-240; P31785 23-262, biotinylated (site not stated)); assay: BLI competition, inhibition of hIL-2 binding
T3 chain 1: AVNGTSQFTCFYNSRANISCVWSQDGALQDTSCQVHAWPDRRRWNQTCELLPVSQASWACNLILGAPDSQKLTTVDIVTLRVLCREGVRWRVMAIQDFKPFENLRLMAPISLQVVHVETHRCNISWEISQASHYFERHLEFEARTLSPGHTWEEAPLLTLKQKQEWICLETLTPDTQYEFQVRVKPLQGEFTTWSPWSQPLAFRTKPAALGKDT
T3 chain 2: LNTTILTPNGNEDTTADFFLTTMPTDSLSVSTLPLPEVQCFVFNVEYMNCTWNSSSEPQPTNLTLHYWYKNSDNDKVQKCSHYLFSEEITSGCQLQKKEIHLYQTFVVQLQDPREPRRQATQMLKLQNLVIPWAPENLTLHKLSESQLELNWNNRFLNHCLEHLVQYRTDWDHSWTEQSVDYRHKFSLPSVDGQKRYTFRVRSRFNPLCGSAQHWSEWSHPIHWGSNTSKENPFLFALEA

mouse IL-2 beta receptor [3] = target: T4, mouse IL-2 beta receptor (mouse, UniProt P16297 27-240); assay: method not stated
T4 construct: also called mIL2RB; beta part of mIL2RBG
T4 sequence (looked up): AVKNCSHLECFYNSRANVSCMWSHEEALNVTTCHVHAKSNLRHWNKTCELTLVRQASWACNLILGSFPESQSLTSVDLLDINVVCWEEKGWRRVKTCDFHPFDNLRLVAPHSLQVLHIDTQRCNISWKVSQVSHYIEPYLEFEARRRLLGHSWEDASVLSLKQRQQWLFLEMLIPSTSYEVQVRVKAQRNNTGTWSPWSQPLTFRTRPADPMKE

hIL2RB-fc chimera [4] = target: T5, hIL2RB-fc chimera (human, UniProt P14784 27-240); assay: BLI (Octet RED96e), hIL2RB-fc (Symansis) on anti-human IgG Fc sensors
T5 construct: also called hIL2 receptor beta; hIL-2Rβ; not shown: Fc part of the bought chimera (captured on anti-human IgG Fc biosensors)
T5 sequence: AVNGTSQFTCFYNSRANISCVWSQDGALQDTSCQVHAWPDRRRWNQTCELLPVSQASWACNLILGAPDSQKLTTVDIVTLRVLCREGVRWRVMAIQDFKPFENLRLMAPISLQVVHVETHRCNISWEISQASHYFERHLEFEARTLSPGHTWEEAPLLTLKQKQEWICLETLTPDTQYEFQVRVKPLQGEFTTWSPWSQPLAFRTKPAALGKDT
Procedure: For this purpose, sensors were soaked in samples containing 20 nM of hIL2RB-fc chimera (Symansis) for 300 sec. […] Finally, sensors were removed from the protein samples and dipped in buffer solutions to promote and measure dissociation (1500 sec). The buffer used to prepare all the samples and soak the sensors was HBS-EP+from GE Healthcare, which contains 10 mM HEPES, 150 mM NaCl, 3 mM EDTA and 0.05% v/v surfactant P20, pH 7.4. Data were acquired at 30° C. using an Octet RED96e system (ForteBio) and processed using the instrument's integrated software. Kinetics were fitted to a 1:1 binding model after subtracting a buffer signal baseline and the Kd values were calculated.

[5] = target: T1, human IL-2 receptor (IL-2Rβγc) on cells; assay: cell-based or functional assay; remark: listed apart in the source
hIL2RB-fc chimera [6] = target: T5, hIL2RB-fc chimera; assay: BLI competition: hIL2RG-fc on sensor, dilutions of P4 + 20 nM Neo-2/15 + 50 nM hIL2RB-fc; competitor Neo-2/15; read-out binding to hIL2RBG
Procedure: (§1) All samples were prepared using HBS-EP+buffer from GE Healthcare, which contains 10 mM HEPES, 150 mM NaCl, 3 mM EDTA and 0.05% v/v surfactant P20, pH 7.4. Data were acquired at 30° C. using an Octet RED96e system (ForteBio) and processed using the instrument's integrated software. IC50 values were estimated from response vs antagonist concentration plots.

Biotinylated hIL2RG = target: T6, Biotinylated hIL2RG (human, UniProt P31785 23-262, limits assumed, biotinylated (site not stated)); assay: BLI (Octet RED96), biotinylated hIL2RG on streptavidin sensors, 200 nM protein + 200 nM hIL2RB
T6 construct: also called human common gamma receptor (hIL2RG); hIL-2Rγc
T6 sequence: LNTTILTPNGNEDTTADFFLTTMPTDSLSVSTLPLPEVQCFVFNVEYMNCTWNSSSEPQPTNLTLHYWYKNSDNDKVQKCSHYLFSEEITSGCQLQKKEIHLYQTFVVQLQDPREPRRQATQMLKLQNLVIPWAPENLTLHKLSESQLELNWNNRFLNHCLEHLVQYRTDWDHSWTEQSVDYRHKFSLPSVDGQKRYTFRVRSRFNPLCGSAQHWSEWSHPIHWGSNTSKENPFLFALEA
Procedure: Biotinylated hIL2RG molecules were immobilized to Streptavidin sensors (SA, ForteBio) at 2 μg/mL in binding buffer (10 mM HEPES, pH 7.4, 150 mM NaCl, 3 mM EDTA, 0.05% surfactant P20, 0.5% non-fat dry milk). After baseline measurement in the binding buffer alone, the binding kinetics were monitored by dipping the biosensors in wells containing 200 nM of protein and 200 nM of hIL2RB for 300 sec. Data were collected in an Octet RED96 (ForteBio) and processed using the instrument's integrated software.

mouse IL-2 beta receptor [7] = target: T4, mouse IL-2 beta receptor; assay: BLI competition: mIL2RG on sensor, dilutions of P4 + 20 nM Neo-2/15; competitor Neo-2/15; read-out binding to mIL2RBG
Procedure: as §1

hIL2RG-fc chimera = target: T7, hIL2RG-fc chimera (human, UniProt P31785 23-262); assay: BLI (Octet RED96e), hIL2RG-fc on anti-human IgG Fc sensors, 200 nM P4 + 200 nM hIL2RB-fc
T7 construct: also called hIL2G; hIL2 receptor gamma; not shown: Fc part of the bought chimera (captured on anti-human IgG Fc biosensors)
T7 sequence: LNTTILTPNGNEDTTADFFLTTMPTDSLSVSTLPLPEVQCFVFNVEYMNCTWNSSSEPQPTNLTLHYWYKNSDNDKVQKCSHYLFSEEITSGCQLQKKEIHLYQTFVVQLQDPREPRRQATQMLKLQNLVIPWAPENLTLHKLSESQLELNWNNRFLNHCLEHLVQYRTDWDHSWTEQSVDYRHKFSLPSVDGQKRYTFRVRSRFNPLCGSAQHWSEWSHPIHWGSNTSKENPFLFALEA
Procedure: All samples were prepared using HBS-EP+ buffer from GE Healthcare, which contains 10 mM HEPES, 150 mM NaCl, 3 mM EDTA and 0.05% v/v surfactant P20, pH 7.4. Data were acquired at 30° C. using an Octet RED96e system (ForteBio) and processed using the instrument's integrated software.

B1: Protein 4 (P4) (designed binder)
chain: PKKKIQLYAEHALYDAEMILKIVKTNSPPAEEELEDYAFNFELILEEIARLFESGDQKDEAEKAKRMKEWMKRIKTTASEDEQEEMANRIRKILEEWIRS
notes: P2 with H8Y and K33E; N-terminal 6xHis tag and thrombin site in the expression vector; also called S4
- Signaling Inhibition IC50 (1 nM hIL-2, pSTAT5, CD4+ T cells) [1]: 1.46 nM
- Signaling Inhibition IC50 (1 nM hIL-2, pSTAT5, CD8+ T cells) [1]: 0.3 nM
- Signaling Inhibition IC50 (1 nM hIL-2, pSTAT5, all T cells) [1]: 0.49 nM
- Kd (Biotinylated hIL2RB): < 1 nM
- IC50 [2]: 88 nM
- Kd (mouse IL-2 beta receptor [3]): 70.6 nM
- Kd (hIL2RB-fc chimera [4]): 0.06 nM
- Binding Inhibition IC50 (inhibition of hIL-2 pSTAT5 signaling, human pan T cells, 0.1 nM hIL2) [5]: 0.1 nM
- Binding Inhibition IC50 (inhibition of hIL-2 pSTAT5 signaling, human pan T cells, 1 nM hIL2) [5]: 0.45 nM
- Binding Inhibition IC50 (inhibition of hIL-2 pSTAT5 signaling, human pan T cells, 10 nM hIL2) [5]: 3.3 nM
- IC50 (hIL2RB-fc chimera [6]): 0.9 nM
- binding result (Biotinylated hIL2RG): no binding (tested: 200 nM)
- IC50 (mouse IL-2 beta receptor [7]): 67.6 nM
- binding result (hIL2RG-fc chimera): no binding (tested: 200 nM)
